Results published in PMC3913652 (PLoS ONE, 2014).

B1: monkey albumin (natural protein, UniProt A2V9Z4 25-608, looked up)
chain: DTHKSEVAHRFKDLGEEHFKGLVLVAFSQYLQQCPFEEHVKLVNEVTEFAKTCVADESAENCDKSLHTLFGDKLCTVATLRETYGEMADCCAKQEPERNECFLQHKDDNPNLPPLVRPEVDVMCTAFHDNEATFLKKYLYEVARRHPYFYAPELLFFAARYKAAFAECCQAADKAACLLPKLDELRDEGKASSAKQRLKCASLQKFGDRAFKAWAVARLSQKFPKAEFAEVSKLVTDLTKVHTECCHGDLLECADDRADLAKYMCENQDSISSKLKECCDKPLLEKSHCLAEVENDEMPADLPSLAADYVESKDVCKNYAEAKDVFLGMFLYEYARRHPDYSVMLLLRLAKAYEATLEKCCAAADPHECYAKVFDEFQPLVEEPQNLVKQNCELFEQLGEYKFQNALLVRYTKKVPQVSTPTLVEVSRNLGKVGAKCCKLPEAKRMPCAEDYLSVVLNRLCVLHEKTPVSEKVTKCCTESLVNRRPCFSALELDEAYVPKAFNAETFTFHADMCTLSEKEKQVKKQTALVELVKHKPKATKEQLKGVMDNFAAFVEKCCKADDKEACFAEEGPKFVAASQAALA
B2: dog albumin (natural protein, UniProt P49822 25-608, looked up)
chain: EAYKSEIAHRYNDLGEEHFRGLVLVAFSQYLQQCPFEDHVKLAKEVTEFAKACAAEESGANCDKSLHTLFGDKLCTVASLRDKYGDMADCCEKQEPDRNECFLAHKDDNPGFPPLVAPEPDALCAAFQDNEQLFLGKYLYEIARRHPYFYAPELLYYAQQYKGVFAECCQAADKAACLGPKIEALREKVLLSSAKERFKCASLQKFGDRAFKAWSVARLSQRFPKADFAEISKVVTDLTKVHKECCHGDLLECADDRADLAKYMCENQDSISTKLKECCDKPVLEKSQCLAEVERDELPGDLPSLAADFVEDKEVCKNYQEAKDVFLGTFLYEYARRHPEYSVSLLLRLAKEYEATLEKCCATDDPPTCYAKVLDEFKPLVDEPQNLVKTNCELFEKLGEYGFQNALLVRYTKKAPQVSTPTLVEVSRKLGKVGTKCCKKPESERMSCAEDFLSVVLNRLCVLHEKTPVSERVTKCCSESLVNRRPCFSGLEVDETYVPKEFNAETFTFHADLCTLPEAEKQVKKQTALVELLKHKPKATDEQLKTVMGDFGAFVEKCCAAENKEGCFSEEGPKLVAAAQAALV
B3: rat albumin (natural protein, UniProt P02770 25-608, looked up)
chain: EAHKSEIAHRFKDLGEQHFKGLVLIAFSQYLQKCPYEEHIKLVQEVTDFAKTCVADENAENCDKSIHTLFGDKLCAIPKLRDNYGELADCCAKQEPERNECFLQHKDDNPNLPPFQRPEAEAMCTSFQENPTSFLGHYLHEVARRHPYFYAPELLYYAEKYNEVLTQCCTESDKAACLTPKLDAVKEKALVAAVRQRMKCSSMQRFGERAFKAWAVARMSQRFPNAEFAEITKLATDVTKINKECCHGDLLECADDRAELAKYMCENQATISSKLQACCDKPVLQKSQCLAEIEHDNIPADLPSIAADFVEDKEVCKNYAEAKDVFLGTFLYEYSRRHPDYSVSLLLRLAKKYEATLEKCCAEGDPPACYGTVLAEFQPLVEEPKNLVKTNCELYEKLGEYGFQNAVLVRYTQKAPQVSTPTLVEAARNLGRVGTKCCTLPEAQRLPCVEDYLSAILNRLCVLHEKTPVSEKVTKCCSGSLVERRPCFSALTVDETYVPKEFKAETFTFHSDICTLPDKEKQIKKQTALAELVKHKPKATEDQLKTVMGDFAQFVDKCCKAADKDNCFATEGPNLVARSKEALA

Target: T1, [Leu^14]exenatide-ABD (leucine substituted for methionine at position 14 (stands in the printed …, C-terminus -OH (Table 1)))
T1 construct: numbers count on: the exenatide peptide; Gly-Gly-Ser tri-peptide linker; 88 residue peptide; also called ABD fused exenatide; source: synthetic peptide (solid phase, reverse-phase HPLC)
Test: SPR; BioRad ProteOn XPR36, GLC sensor chip, 25°C; albumins amine-coupled (2000-5000 RU), peptides flowed over at 3 concentrations in duplicate; 10 mM HEPES pH 7.4, 150 mM NaCl, 3 mM EDTA, 0.005% Tween-20, 0.2 mg/ml ovalbumin; highest concentration dissociated for 3 hours; 1:1 (Langmuir) model with correction for mass transfer
Conditions: both partners purified

Binder	Kd
B1	0.0402 nM
B2	0.0981 nM
B3	0.0082 nM
